Data taken from the supplement of paper PMC7877785.
± gives the uncertainty stated by the source.

Assay: self-splicing fitness, log relative to wild type (ln ratio); higher = more splicing; Tetrahymena group I intron in knt gene, E. coli kanamycin selection, DiMSum; sequences stand for … in CUCUCU…GGAGGGAAAAGUUAUCAGGCAUGCACCUGGUAGCUAGUCUUUAAACCAAUAGAUUGCAUCGGUUUAAAAGGCAAGACCGUCAAAUUGCGGGAAAGGGGUCAACAGCCGUUCAGUACCAAGUCUCAGGGGAAACUUUGAGAUGGCCUUGCAAAGGGUAUGGUAAUAAGCUGACGGACAUGGUCCUAACCACGCAGCCAAGUCCUAAGUCAACAGAUCUUCUGUUGAUAUGGAUGCAGUUCACAGACUAAAUGUCGGUCGGGGAAGAUGUAUUCUUCUCAUAAGAUAUAGUCGGACCUCUCCUUAAUGGGAGCUAGCGGAUGAAGUGAUGCAACACUGGAGCCGCUGGGAACUAAUUUGUAUGCGAAAGUAUAUUGAUUAGUUUUGGAGUACUCGUGGUCG
Procedure, shortened: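 Library with all eight P1ex-region intron nucleotides randomised, intron inside the knt kanamycin-resistance gene on pET-22b(+), in E. coli BL21(DE3). Cells grew overnight at 37°C or 30°C on LB agar with or without 25 μg/mL kanamycin (plus 100 μg/mL carbenicillin, 50 μM IPTG, 0.2% rhamnose), in six replicate transformations. Pooled colonies were amplicon-sequenced on Illumina HiSeq 2500. DiMSum fitness is the error-weighted combination of wild-type-normalised replicate fold changes, kanamycin versus none.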

## AACGAGCAAUAUUACGUUUC
30 °C
  self-splicing fitness (ln): -3.05 ± 0.19
37 °C
  self-splicing fitness (ln): -2.42 ± 0.19

## CUAUAGCAAUAUUACGAUUU
37 °C
  self-splicing fitness (ln): -0.748 ± 0.28

## GGUUAGCAAUAUUACGGAAC
30 °C
  self-splicing fitness (ln): -1.48 ± 0.3
37 °C
  self-splicing fitness (ln): -0.799 ± 0.46

## AACAAGCAAUAUUACGUUAG
30 °C
  self-splicing fitness (ln): -4.21 ± 0.22
37 °C
  self-splicing fitness (ln): -3.26 ± 0.24

## CACCAGCAAUAUUACGAAGG
30 °C
  self-splicing fitness (ln): -1.1 ± 0.046
37 °C
  self-splicing fitness (ln): -0.304 ± 0.077

## UACUAGCAAUAUUACGAUUA
30 °C
  self-splicing fitness (ln): -0.867 ± 0.13
37 °C
  self-splicing fitness (ln): 0.62 ± 0.16

## CCAGAGCAAUAUUACGUCUC
30 °C
  self-splicing fitness (ln): -3.23 ± 0.15
37 °C
  self-splicing fitness (ln): -2.78 ± 0.23

## GUACAGCAAUAUUACGAGCU
30 °C
  self-splicing fitness (ln): -2.18 ± 0.15
37 °C
  self-splicing fitness (ln): -1.51 ± 0.15

## UGGUAGCAAUAUUACGCUCC
30 °C
  self-splicing fitness (ln): -2.54 ± 0.24
37 °C
  self-splicing fitness (ln): -2.44 ± 0.21

## ACCAAGCAAUAUUACGGGAA
30 °C
  self-splicing fitness (ln): -2.85 ± 0.13
37 °C
  self-splicing fitness (ln): -2.19 ± 0.1

## CACGAGCAAUAUUACGAAAC
30 °C
  self-splicing fitness (ln): -2.02 ± 0.36
37 °C
  self-splicing fitness (ln): -1.68 ± 0.4

## AGCCAGCAAUAUUACGAAGA
30 °C
  self-splicing fitness (ln): -1.84 ± 0.26
37 °C
  self-splicing fitness (ln): -1.46 ± 0.2

## CCACAGCAAUAUUACGAGUA
30 °C
  self-splicing fitness (ln): -3.68 ± 0.2
37 °C
  self-splicing fitness (ln): -2.31 ± 0.19

## AGCGAGCAAUAUUACGUGUU
30 °C
  self-splicing fitness (ln): -3.06 ± 0.16
37 °C
  self-splicing fitness (ln): -2.79 ± 0.26

## AACCAGCAAUAUUACGGUCU
30 °C
  self-splicing fitness (ln): -0.594 ± 0.048
37 °C
  self-splicing fitness (ln): -0.249 ± 0.066

## GCGCAGCAAUAUUACGGCAC
30 °C
  self-splicing fitness (ln): -0.436 ± 0.11
37 °C
  self-splicing fitness (ln): -0.634 ± 0.13

## GGAAAGCAAUAUUACGCGCC
30 °C
  self-splicing fitness (ln): -3.03 ± 0.49
37 °C
  self-splicing fitness (ln): -2.17 ± 0.42

## UAAUAGCAAUAUUACGCUAA
30 °C
  self-splicing fitness (ln): -2.11 ± 0.27
37 °C
  self-splicing fitness (ln): -1.39 ± 0.19

## GGCCAGCAAUAUUACGGCGC
30 °C
  self-splicing fitness (ln): -1.79 ± 0.21
37 °C
  self-splicing fitness (ln): -1.57 ± 0.34

## GAAUAGCAAUAUUACGAUUA
30 °C
  self-splicing fitness (ln): -0.73 ± 0.093
37 °C
  self-splicing fitness (ln): 0.156 ± 0.11

## CCCUAGCAAUAUUACGGCGU
30 °C
  self-splicing fitness (ln): -2.1 ± 0.15
37 °C
  self-splicing fitness (ln): -2.35 ± 0.17

## CUCGAGCAAUAUUACGAUAC
37 °C
  self-splicing fitness (ln): -2.64 ± 0.36

## UGUGAGCAAUAUUACGGUUU
30 °C
  self-splicing fitness (ln): -3.66 ± 0.21
37 °C
  self-splicing fitness (ln): -2.65 ± 0.25

## UGUGAGCAAUAUUACGAUCA
30 °C
  self-splicing fitness (ln): -0.397 ± 0.23
37 °C
  self-splicing fitness (ln): -0.874 ± 0.32

## AGACAGCAAUAUUACGCGAG
30 °C
  self-splicing fitness (ln): -1.22 ± 0.091
37 °C
  self-splicing fitness (ln): -0.818 ± 0.094

## ACCGAGCAAUAUUACGCGAC
37 °C
  self-splicing fitness (ln): -2.66 ± 0.44

## UAUUAGCAAUAUUACGUUAA
30 °C
  self-splicing fitness (ln): -1.91 ± 0.36
37 °C
  self-splicing fitness (ln): -1.53 ± 0.18

## UUAGAGCAAUAUUACGUUAU
30 °C
  self-splicing fitness (ln): -3.14 ± 0.16
37 °C
  self-splicing fitness (ln): -2.14 ± 0.19

## CUACAGCAAUAUUACGCCAG
30 °C
  self-splicing fitness (ln): -1.3 ± 0.13
37 °C
  self-splicing fitness (ln): -0.891 ± 0.16

## CGCCAGCAAUAUUACGAGGG
30 °C
  self-splicing fitness (ln): -3.28 ± 0.17
37 °C
  self-splicing fitness (ln): -1.83 ± 0.18

## UUAGAGCAAUAUUACGCUGG
30 °C
  self-splicing fitness (ln): -1.75 ± 0.11
37 °C
  self-splicing fitness (ln): -0.227 ± 0.18

## CGCUAGCAAUAUUACGAAGA
30 °C
  self-splicing fitness (ln): -2.12 ± 0.46

## GGCUAGCAAUAUUACGGCUU
30 °C
  self-splicing fitness (ln): -1.31 ± 0.17
37 °C
  self-splicing fitness (ln): 0.197 ± 0.21

## AGGAAGCAAUAUUACGCCUA
30 °C
  self-splicing fitness (ln): -0.554 ± 0.12
37 °C
  self-splicing fitness (ln): -0.497 ± 0.14

## CUUCAGCAAUAUUACGGGGG
30 °C
  self-splicing fitness (ln): -3.72 ± 0.21
37 °C
  self-splicing fitness (ln): -2.23 ± 0.26

## UUCUAGCAAUAUUACGUGCC
30 °C
  self-splicing fitness (ln): -3.06 ± 0.36

## GCUUAGCAAUAUUACGCUCA
30 °C
  self-splicing fitness (ln): -1.34 ± 0.23
37 °C
  self-splicing fitness (ln): -0.203 ± 0.22

## AGCAAGCAAUAUUACGAUCC
30 °C
  self-splicing fitness (ln): -1.8 ± 0.18
37 °C
  self-splicing fitness (ln): 1.31 ± 0.25

## GGCGAGCAAUAUUACGGACG
30 °C
  self-splicing fitness (ln): -0.223 ± 0.1
37 °C
  self-splicing fitness (ln): -0.489 ± 0.21
